# Reference: patent US20150140120, “STABILIZED APTAMERS TO PLATELET DERIVED GROWTH FACTOR AND THEIR USE AS ONCOLOGY THERAPEUTICS” (ARCHEMIX LLC, published 2015)
# Where a chain is given by its changes, count along the chain named.
# B1: ARX33P1.D1 (ssRNA)
# RNA: GGGAAAAGCGAAUCAUACACAAGAUCGCCAGGAGCAAAGUCACGGAGGAGUGGGGGUACGAAUGCUCCGCCAGAGACCAACCGAGAA
# modifications: 2'-F pyrimidines, 2'-OH purines
# B2: ARX33P1.E11 (ssRNA)
# RNA: GGGAAAAGCGAAUCAUACACAAGAGAGUGGAGGAGGUAUGUAUGGUUUGUGCGUCUGGUGCGGUGCUCCGCCAGAGACCAACCGAGAA
# modifications: 2'-F pyrimidines, 2'-OH purines
# B3: ARC245 (XNA)
# RNA: AUGCAGUUUGAGAAGUCGCGCAU
# modifications: all 2'-OMe; 3' inverted dT
# B4: deoxyARC126 (ssDNA)
# DNA: CAGGCTACGCGTAGAGCATCATGATCCTG
# modifications: 3' inverted dT (SEQ ID NO: 8)
# B5: ARX33P1.D2 (ssRNA)
# RNA: GGGAAAAGCGAAUCAUACACAAGACCGGGAACUCGGAUUCUUCGCAUGUGGAUGCGAUCAGUAUGCUCCGCCAGAGACCAACCGAGAA
# modifications: 2'-F pyrimidines, 2'-OH purines
# B6: ARX33P1.E5 (ssRNA)
# RNA: B5 RNA with G44A, C55U
# modifications: 2'-F pyrimidines, 2'-OH purines
# B7: ARX33P1.E10 (ssRNA)
# RNA: B5 RNA with G29A
# modifications: 2'-F pyrimidines, 2'-OH purines
# B8: TK.131.012.B (mixed)
# mixed: CAGGCTACGUGCAGUUUGAGAAGUCGCGCACGTAGAGCATCAGAAATGATCCTG
# modifications: DNA (PDGF part) with 2'-OMe VEGF part (ARC245 lacking first mA-mU pair); 3' inverted dT
# B9: TK.131.012.A (mixed)
# mixed: CAGGCTACGAUGCAGUUUGAGAAGUCGCGCAUCGTAGAGCATCAGAAATGATCCTG
# modifications: DNA (PDGF part) with 2'-OMe VEGF part (ARC245); 3' inverted dT
# Assays:
# [1] = target: T1, PDGF-AA (rat, UniProt P28576 P28576:86-204); test: filter; N.B., no significant binding; settings: chain copies: 2 inferred; label: 5'-32P
# Procedure: (§1) Dot blot binding assays were performed throughout the selection to monitor the protein binding affinity of the pool. Trace ³²P-labeled RNA was combined with PDGF-AA and incubated at room temperature for 30 min in 1× SHMCK plus 0.1 mg/ml tRNA for a final volume of 20 μl. The reaction was added to a dot blot apparatus (Schleicher and Schuell Minifold-1 Dot Blot, Acrylic), assembled (from top to bottom) with nitrocellulose, nylon, and gel blot membranes. RNA that is bound to protein is captured on the nitrocellulose filter, whereas the non-protein bound RNA is captured on the nylon filter.
# [2] = target: T2, PDGF-AA short form (human, UniProt P04085-2 P04085-2:87-196); test: filter; N.B., no significant binding; settings: tags: Roche Biomedical (short form); chain copies: 2 inferred; label: 5'-32P
# Procedure: as §1
# [3] = target: VEGF (UniProt P15692-4 P15692-4:27-191); test: filter; dot blot; settings: chain copies: 2
# Excerpt: (§2) Protein-associated radio-label is captured on the nitrocellulose membrane while the balance of the radio-label is captured on the nylon membrane. The radio-label data is collected on a phosphorimaging plate.
# [4] = target: T3, PDGF-BB (human, UniProt P01127 P01127:82-190); test: filter; recognises VEGF but not PDGF; settings: tags: PeproTech (ERK assay: R&D Systems); chain copies: 2 inferred
# [5] = target: T3, PDGF-BB; test: filter; all-DNA ARC126 used in the chimera; dot blot; settings: tags: PeproTech (ERK assay: R&D Systems); chain copies: 2 inferred
# Excerpt: as §2
# [6] = target: T1, PDGF-AA; test: filter; 1x SHMCK, 0.1 mg/mL tRNA, RT; settings: chain copies: 2 inferred; label: 5'-32P
# Procedure: as §1
# [7] = target: T2, PDGF-AA short form; test: filter; 1x SHMCK (Mg, Ca), 0.1 mg/mL tRNA, RT; 2-3 fold lower without tRNA; settings: tags: Roche Biomedical (short form); chain copies: 2 inferred; label: 5'-32P
# Procedure: as §1
# [8] = target: T2, PDGF-AA short form; test: filter; 1x SHMCK, 0.1 mg/mL tRNA, RT; settings: tags: Roche Biomedical (short form); chain copies: 2 inferred; label: 5'-32P
# Procedure: as §1
# [9] = target: T3, PDGF-BB; test: filter; dot blot; settings: tags: PeproTech (ERK assay: R&D Systems); chain copies: 2 inferred
# Excerpt: as §2
# Chain of VEGF (P15692 other isoform, or with tags, fused parts or gaps): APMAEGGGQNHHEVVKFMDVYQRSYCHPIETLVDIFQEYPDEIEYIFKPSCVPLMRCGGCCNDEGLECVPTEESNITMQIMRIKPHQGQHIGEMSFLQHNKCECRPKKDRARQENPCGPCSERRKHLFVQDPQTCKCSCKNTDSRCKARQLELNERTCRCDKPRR
# T3 sequence (P01127 82-190, one chain of several): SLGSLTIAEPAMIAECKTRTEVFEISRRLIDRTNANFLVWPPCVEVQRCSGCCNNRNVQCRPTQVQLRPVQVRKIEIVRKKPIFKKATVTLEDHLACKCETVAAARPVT
binder,measurement,setting,value
B1,binding result,[1],no binding
same,binding result,[2],no binding
B2,binding result,[1],no binding
same,binding result,[2],no binding
B3,Kd,[3],~0.002 µM
same,binding result,[4],no binding
B4,Kd,[5],~0.0001 µM
B5,Kd,[6],0.0517 µM
same,Kd,[7],0.104 µM
B6,Kd,[6],0.0574 µM
same,Kd,[8],0.117 µM
B7,Kd,[6],0.0471 µM
same,Kd,[8],0.133 µM
B8,Kd,[9],~0.01 µM
same,Kd,[3],~0.005 µM
B9,Kd,[9],~0.01 µM
same,Kd,[3],~0.01 µM
